Values of other authors, collected in patent US12478627B2, “Irsogladine for the treatment of eosinophilic gastrointestinal diseases” (EPITHELION SCIENCE BIOTECH, S.L., priority 2019, dated 2025).

B1: Mepolizumab: mAb against IL-5 (antibody, chains of the INN, looked up, V domains shown)
VH: QVTLRESGPALVKPTQTLTLTCTVSGFSLTSYSVHWVRQPPGKGLEWLGVIWASGGTDYNSALMSRLSISKDTSRNQVVLTMTNMDPVDTATYYCARDPPSSLLRLDYWGRGTPVTVSS
VL: DIVMTQSPDSLAVSLGERATINCKSSQSLLNSGNQKNYLAWYQQKPGQPPKLLIYGASTRESGVPDRFSGSGSGTDFTLTISSLQAEDVAVYYCQNVHSFPFTFGGGTKLEIK
B2: Resolizumab: mAb against IL-5 (antibody, chains of the INN, looked up, V domains shown)
VH: EVQLVESGGGLVQPGGSLRLSCAVSGLSLTSNSVNWIRQAPGKGLEWVGLIWSNGDTDYNSAIKSRFTISRDTSKSTVYLQMNSLRAEDTAVYYCAREYYGYFDYWGQGTLVTVSS
VL: DIQMTQSPSSLSASVGDRVTITCLASEGISSYLAWYQQKPGKAPKLLIYGANSLQTGVPSRFSGSGSATDYTLTISSLQPEDFATYYCQQSYKFPNTFGQGTKVEVK

System: EoE and EoGIDs
Conditions: patients with EoE or EoGIDs, literature reports

Molecule | clinical symptoms | tissue eosinophil infiltrate
B1 | did not correspond with clinical improvement | significant reduction
B2 | did not correspond with clinical improvement | significant reduction
